This is an account of results in article PMC9239094 (mBio, 2022).

What all share (assay): cryo-EM structure; single-particle cryo-EM of the complex purified in LMNG (Strep-Tactin XT, then SEC); samples at A280 of 1 on Quantifoil Au R1.2/1.3 grids, blotted at 4°C; SthGldLM′ also with fluorinated octyl maltoside in buffer W (100 mM Tris-HCl pH 8.0, 150 mM NaCl, 1 mM EDTA) plus 0.01% LMNG
For series [1], the target named is Capnocytophaga canimorsus GldL (Capnocytophaga canimorsus).
The target of series [2] is Sphingobacterium wenxiniae GldL (Sphingobacterium wenxiniae).
The target of series [3] is Schleiferia thermophila GldL (Schleiferia thermophila).
Series [4] concerns the molecule itself.

Usually stoichiometry N stands for a count of units in the complex or per binding partner. “Capnocytophaga canimorsus GldL (natural protein)”: in series [1], the stoichiometry N turned out to be 5.
As to “Sphingobacterium wenxiniae GldL (natural protein)”, the stoichiometry N in series [2] came out at 5.
As for “Schleiferia thermophila GldL (natural protein)”, the stoichiometry N in series [3] was determined as 5.

B1: Sphingobacterium wenxiniae GldM′ (GldM truncated after the first periplasmic D1 domain, twin-Strep-tagged) (domain or fragment)
chain: MAGKKETPRQRMIGILYLVLLGLVALNVSDSILDAFKNLGNSLNTSTQNTQAGIDNMFLAFRETKLKENPERAQPILQKAEQAQALVQQLTSKVGELTTLLEGEGGGLDEETGDVKYRSSTDISARLMINEGRAKELREVITKTKAELLTLTNNEINLTLEAEDPAPRGGIKKTWEQANFGDGIPLTAAITALEKINADAKNAESAVVKHIFGKMDQAVVNLDQENLYFQGQFGSWSHPQFEKGGGSGGGSGGGSWSHPQFEK
On to B1, for which, in series [4], the “stoichiometry N” value stood at 2.

B2: Capnocytophaga canimorsus GldM″ (GldM truncated after the D2 periplasmic domain, twin-Strep-tagged) (domain or fragment)
chain: MAGGNSPRQKMINLMYLVFISMLALNMGKEVLSAFGLMNEKLEASNEKANNANINAIQALEQNNAENPDQFAEAFQKSKKVKELSDSFYNYIEGIKGEVMNQVGEDKKDYQVMDKSDYLDQKFFVGDNYKPEGEEFVRQINDYKTQLVELLGGKEGTYGELVGKIDGNFNTNDVVDREGVTRKWLNYNFEGFPYIASVAKLSMMQSDIRATEQEVYAEMLKGQLKSQISMTNYTTLLEQSKGAYYQGESFDGAIVLGRKDASTRPNEVELMLDGRKLSASEFQIEDGKVKLKVGAGNAGEHKITGNLYFDQDGKRIAVPVSQVFSTIPKPENLYFQGQFGSWSHPQFEKGGGSGGGSGGGSWSHPQFEK
In the case of B2, the “stoichiometry N” value in series [4] was 2.

B3: Porphyromonas gingivalis PorM′ (PorM truncated after the first periplasmic D1 domain, twin-Strep-tagged) (domain or fragment)
chain: MAVGSNGNANRQKMINLMYLVFIAMMALNVSSEVLDGFDKVDKSLTSSIDGSDKRNNLVLSELNTAYRTNPEKVKVWYERSLVLQKEADSLCTFIDDLKLAIARESDGKDAKVNDIRRKDNLDASSVVMLNPINGKGSTLRKEVDKFRELVATLMTDKAKLKLIEQALNTESGTKGKSWESSLFENMPTVAAITLLTKLQSDVRYAQGEVLADLVKSVDVGDYRVNS
As for B3, in series [4], the “stoichiometry N” value amounted to 2.

B4: Porphyromonas gingivalis PorL (natural protein)
chain: MGHYRRYKNILEMYLASHKGRRLLNIVYSWGAAVVILGALFKLLHLPMGNEMLFVGMITEFLVFFISGFEKPAMEYHWEEVFPELDSKNPMDRREMEQRREYLREKAKEAAAYAERPSSVRLASASLGTQPQEQPKPATPFQSQLTGILPEEQIQRLSEGIDKLAEAGEQLARIGRTAAAMTESYEQMQADQEGLRLNSQSYIQQMESLSRNISGLNTIYEIQLKGISSQIDTIDRINRGLAHIRDMYDNSVIDSSSFRNENERMARQLTQLNEVYARLLQALTTNVGLPGMPGNFGASNPSSSGSSPL
Take B4: the “stoichiometry N” value in series [4] is 5.

B5: Schleiferia thermophila GldM′ (GldM truncated after the first periplasmic D1 domain, twin-Strep-tagged) (domain or fragment)
chain: MAQGKLSPRQRMINMMYLVLTALLALNISKDILEALTKLNEDLSSTVMTVEKKLAFIYQAFDLAASENPEKAGVWRDKAYEVKKQADELHNYLEGIKNDLIEITGGIDEKTNRPKGLDNREKVANYLLVNEGGKAREIRARLEQFRDNMKQYVDEEAALINMLEALFNTEKKKVGDVMIEWENATFEHFPLAAVIPFITGIQANVRNAEADIISHLQRNIGKTDLKFTDENLYFQGQFGSWSHPQFEKGGGSGGGSGGGSWSHPQFEK
As to B5, the “stoichiometry N” value in series [4] was found to be 2.
